Consider six proteins from article PMC3958920 (FEBS Open Bio, 2014).

The data set “SEC” deals with the molecule itself. Briefly: SEC. Background: In gel filtration, larger molecules generally elute earlier.
Substrate in data set [1]: O=C(O)C1=NC[C@@H](O)C1
Briefly: purified protein. Conditions: NADPH.

Substrate in data set [2]: O=C(O)[C@@H]1CCCN1
Briefly: purified protein. Conditions: NADP+.

Substrate in data set [3]: O=C(O)C1=NCCC1
Briefly: purified protein. Conditions: NADPH.

Substrate in data set [4]: O=C(O)C1=NCCCC1
Briefly: purified protein. The following applies: NADPH.

Substrate in data set [5]: O=C(O)[C@@H]1CCCCN1
Briefly: purified protein. Conditions: NADP+.

Setting [6] is: potassium phosphate pH 6.5, 30 °C.
[7] abbreviates: potassium phosphate pH 7.0, 30 °C.

B1: AbLhpH, trans-3-hydroxy-L-proline dehydratase of Azospirillum brasilense (enzyme, UniProt V5YXI5 1-335, looked up)
chain: MKITRSLSTVEVHTGGEAFRIVTSGLPRAPGDTIVQRRAWLKENADEIRRALMFEPRGHADMYGGYLTEPVSPNADFGVIFVHNEGYSDHCGHGVIALSTAAVELGWVQRTVPETRVGIDAPCGFIEAFVKWDGEHAGPVRFVNVPSFIWQRDVSVETPSFGTVTGDIAYGGAFYFYVDGAPFDLPVREAAVEKLIRFGAEVKAAANAKYPVVHPEIPEINHIYGTIIANAPRHPGSTQANCCVFADREVDRSPTGSGTGGRVAQLYQRGLLAAGDTLVNESIVGTVFKGRVLRETTVGDIPAVIPEVEGSAHICGFANWIVDERDPLTYGFLVR
As a reminder, the stoichiometry N is a count of units in the complex or per binding partner. Turning to B1, in “SEC”, the “stoichiometry N” value amounted to 2.

B2: CpLhpI, Δ1-pyrroline-2-carboxylate reductase of Colwellia psychrerythraea 34H (enzyme, UniProt Q485R8 1-316, looked up)
chain: MKIISAEQVHQNLNFEELIPLLKQSFSRPFSMPQRQVYSLAPEQSENHDAFALLPSWNEEVIGNKAFTYFPDNAKKHDLPGLFSKIMLFKRQTGEPLALVDGTSVTYWRTAAISALASQLLSRKNSQHLMLFGTGNLASYLVKAHLTVRDIKQVTLWGRNAKKVSKLIADFSILYPAVTFKTSVDVNAEVASADIICCATGAKTPLFDGNSVSAGCHIDCLGNHMTDARECDTTTILRARVFVDSLTNTLNEAGELLIPMAEDAFNKDEIVGELADMCKTPSMLRQSSDEITLFKSVGTAISDLVAAHSVVEKLAD
The Km is the substrate concentration at which the rate is half of its maximum. What is called kcat is the number of substrate molecules converted per active site and unit of time at saturation. The kcat/Km is the second-order rate constant that governs catalysis at low substrate concentration. Take B2: the Km in “purified protein [1]” (setting [6]) was 8.28 ± 2.45 mM; in “purified protein [2]” (glycine-NaOH pH 10.5, 30 °C) it was 18.3 ± 2.4 mM; in “purified protein [3]” (setting [6]) it was 5.90 ± 0.36 mM; in “purified protein [4]” (setting [6]) it was 7.26 ± 1.22 mM; in “purified protein [5]” (glycine-NaOH pH 10.5, 30 °C), 80.1 ± 2.8 mM. Further, the catalytic constant (kcat) was found to be 1.02 ± 0.287 s⁻¹ in “purified protein [1]” (setting [6]); 1.09 ± 0.115 s⁻¹ in the data set “purified protein [2]” (glycine-NaOH pH 10.5, 30 °C); 124 ± 7.83 s⁻¹ in “purified protein [3]” (setting [6]); 1.38 ± 0.228 s⁻¹ in the data set “purified protein [4]” (setting [6]); 0.0213 ± 0.000667 s⁻¹ in “purified protein [5]” (glycine-NaOH pH 10.5, 30 °C). In addition, the kcat/Km in “purified protein [1]” (setting [6]) is 124 ± 2.33 M⁻¹ s⁻¹; in the data set “purified protein [2]” (glycine-NaOH pH 10.5, 30 °C), 59.5 ± 1.5 M⁻¹ s⁻¹; in the data set “purified protein [3]” (setting [6]), 21170 ± 33.3 M⁻¹ s⁻¹; in “purified protein [4]” (setting [6]), 190 ± 3.33 M⁻¹ s⁻¹; in “purified protein [5]” (glycine-NaOH pH 10.5, 30 °C), 0.267 ± 0.0167 M⁻¹ s⁻¹. For the same protein, the “stoichiometry N” value in the data set “SEC” was found to be 2.

B3: CpLhpH, trans-3-hydroxy-L-proline dehydratase of Colwellia psychrerythraea 34H (enzyme, UniProt Q485S0 1-355, looked up)
chain: MTKNIAQAAVKFEQWQPKIEQESYLTINSLECHTGGEPLRIITSGFPVLKGNTILAKANDCKQNYDQLRRALMFEPRGHADMYGAIITDAERDDSHFGAVFIHNEGYSSMCGHAVIALTKTAVESGVVARTGDVTQVVIDVPCGQIYAMAYSHNNVVKHVSFQCVPSFVYAKDQQVEVDGIGMVQFDIAYGGAFYAYVQASSLGLSLVPEQQEKLIAYGRKIKQAIIPQFEINHPTTAELSFLYGVIFIDDSPNQDVHSRNVCIFADGELDRSPTGSGVSGRIALHHAKQQIVLNETITIESILASSFSVRAIETVCFAGFDAVIPEVTGDAYVCGKGQWFINAEDPLKYGFLLR
B3: the “stoichiometry N” value in the data set “SEC” was found to be 2.

B4: PaLhpD, Pyr2C/Pip2C reductase of Pseudomonas aeruginosa (enzyme, Pseudomonas aeruginosa PAO1, UniProt Q9I492 1-334, looked up)
chain: MIRMTLDEVRELAVRILRRHAFSEAHVQAVADTLVAGERDECASHGIWRLLGCIATLKAGKVSADAEPELHDIAPGLLRVDAHGGFSQCAFRLGLPHLLEKARSQGIAAMAVNRCVHFSALWVEVEALTEAGLVALATTPSHAWVAPAGGRKPIFGTNPIAFGWPRPDGPPFVFDFATSAVARGEIQLHERAGKPIPLGWGVDEQGEPTTDASAALRGAMLTFGGHKGSALAAMVELLAGPLIGDLTSAESLAYDEGSRSSPYGGELLIAIDPRRMLGASAEEHLARAETLFEGIVEQGARLPSQRRFEARERSARDGVTIPEALHRELLALLE
For the protein B4, the Km in “purified protein [1]” (setting [7]) stood at 0.835 ± 0.109 mM; in “purified protein [2]” (glycine-NaOH pH 10.0, 30 °C), 18.5 ± 2.1 mM; in “purified protein [3]” (setting [7]) it was 0.447 ± 0.040 mM; in the data set “purified protein [4]” (setting [7]) it was 1.57 ± 0.3 mM; in the data set “purified protein [5]” (glycine-NaOH pH 10.0, 30 °C) it was 34.8 ± 4.0 mM. The kcat in the data set “purified protein [1]” (setting [7]) was 14.5 ± 1.18 s⁻¹; in the data set “purified protein [2]” (glycine-NaOH pH 10.0, 30 °C), 3.42 ± 0.3 s⁻¹; in the data set “purified protein [3]” (setting [7]) it was 41.7 ± 2 s⁻¹; in “purified protein [4]” (setting [7]) it was 35.3 ± 4.83 s⁻¹; in “purified protein [5]” (glycine-NaOH pH 10.0, 30 °C) it was 2.25 ± 0.233 s⁻¹. Further, the kcat/Km turned out to be 17400 ± 800 M⁻¹ s⁻¹ in “purified protein [1]” (setting [7]); 185 ± 5 M⁻¹ s⁻¹ in “purified protein [2]” (glycine-NaOH pH 10.0, 30 °C); 93300 ± 3670 M⁻¹ s⁻¹ in the data set “purified protein [3]” (setting [7]); 22500 ± 1130 M⁻¹ s⁻¹ in “purified protein [4]” (setting [7]); 64.7 ± 0.833 M⁻¹ s⁻¹ in “purified protein [5]” (glycine-NaOH pH 10.0, 30 °C). Besides, in the data set “SEC”, the “stoichiometry N” value was 2.

B5: AbLhpI, Δ1-pyrroline-2-carboxylate reductase of Azospirillum brasilense (enzyme, UniProt V5YW53 1-311, looked up)
chain: MTALSPIPVFDAADTAALLAYPALLATLGQAVADYAAGEIVSPERLVVPLQAGGVMLSMPSSARDLATHKLVNVCPGNGARGLPTILGQVTAYDASTGEMRFALDGPTVTGRRTAAVTALGIQALHGAAPRDILLIGTGKQAANHAEALAAIFPEARLHVRGTSADSAAAFCAAHRAQAPRLVPLDGDAIPDAIDVVVTLTTSRTPVYREAAREGRLVVGVGAFTADAAEIDANTVRASRLVVDDPAGARHEAGDLIVAQVDWQHVASLADVLGGTFDRSGPLLFKSVGCAAWDLAACRTARDALAARRAG
With B5, the Km was determined as 0.491 ± 0.063 mM in “purified protein [1]” (setting [6]); 3.63 ± 0.31 mM in “purified protein [2]” (glycine-NaOH pH 10.5, 30 °C); 0.628 ± 0.045 mM in “purified protein [3]” (setting [6]); 0.474 ± 0.050 mM in “purified protein [4]” (setting [6]); 6.54 ± 0.96 mM in the data set “purified protein [5]” (glycine-NaOH pH 10.5, 30 °C). Moreover, the turnover number (kcat) turned out to be 10.3 ± 0.967 s⁻¹ in the data set “purified protein [1]” (setting [6]); 3.92 ± 0.117 s⁻¹ in “purified protein [2]” (glycine-NaOH pH 10.5, 30 °C); 523 ± 21.7 s⁻¹ in the data set “purified protein [3]” (setting [6]); 166 ± 10.2 s⁻¹ in the data set “purified protein [4]” (setting [6]); 2.5 ± 0.233 s⁻¹ in “purified protein [5]” (glycine-NaOH pH 10.5, 30 °C). Moreover, the kcat/Km worked out at 21200 ± 750 M⁻¹ s⁻¹ in the data set “purified protein [1]” (setting [6]); 1080 ± 61.7 M⁻¹ s⁻¹ in “purified protein [2]” (glycine-NaOH pH 10.5, 30 °C); 835000 ± 23300 M⁻¹ s⁻¹ in “purified protein [3]” (setting [6]); 352000 ± 16800 M⁻¹ s⁻¹ in the data set “purified protein [4]” (setting [6]); 383 ± 20 M⁻¹ s⁻¹ in the data set “purified protein [5]” (glycine-NaOH pH 10.5, 30 °C). Besides, the “stoichiometry N” value in “SEC” turned out to be 2.

B6: C14orf149, human trans-3-hydroxy-L-proline dehydratase (enzyme, UniProt Q96EM0 1-354, looked up)
chain: MESALAVPRLPPHDPGTPVLSVVDMHTGGEPLRIVLAGCPEVSGPTLLAKRRYMRQHLDHVRRRLMFEPRGHRDMYGAVLVPSELPDAHLGVLFLHNEGYSSMCGHAVLALGRFALDFGLVPAPPAGTREARVNIHCPCGLVTAFVACEDGRSHGPVRFHSVPAFVLATDLMVDVPGHGKVMVDIAYGGAFYAFVTAEKLGLDICSAKTRDLVDAASAVTEAVKAQFKINHPDSEDLAFLYGTILTDGKDAYTKEPTTNICVFADEQVDRSPTGSGVTARIALQYHKGLLELNQMRAFKSSATGSVFTGKAVREAKCGDFKAVIVEVSGQAHYTGTASFIIEDDDPLRDGFLLK
B6: in “SEC”, the “stoichiometry N” value turned out to be 2.
